# Article doi:10.1101/2021.06.06.447285 (bioRxiv, 2021)
# Molecular target: the molecule itself
# Experiment: native gel or EMSA + other: dynamic light scattering + other: negative-stain TEM
protein,measurement,value
Encapsulin from Thermotoga maritima (natural protein) MEFLKRSFAPLTEKQWQEIDNRAREIFKTQLYGRKFVDVEGPYGWEYAAHPLGEVEVLSDENEVVKWGLRKSLPLIELRATFTLDLWELDNLERGKPNVDLSSLEETVRKVAEFEDEVIFRGCEKSGVKGLLSFEERKIECGSTPKDLLEAIVRALSIFSKDGIEGPYTLVINTDRWINFLKEEAGHYPLEKRVEECLRGGKIITTPRIEDALVVSERGGDFKLILGQDLSIGYEDREKDAVRLFITETFTFQVVNPEALILLKF,binding result,binds
